Literature values, collected in patent publication US7630838B2, “Method for identifying agents that interact with beta-site APP cleaving enzyme (BACE)” (American Home Products Corporation, priority 2000, dated 2009).
Non-standard residues stand in square brackets, D forms with d. No end group written: not given here. Sta = CC(C)C[C@H](N)[C@@H](O)CC(=O)O

Molecular target: β-secretase enzyme (Homo sapiens, UniProt P56817)
Details: stated in words only; no number given

Sequence of β-secretase enzyme (P56817 46-501): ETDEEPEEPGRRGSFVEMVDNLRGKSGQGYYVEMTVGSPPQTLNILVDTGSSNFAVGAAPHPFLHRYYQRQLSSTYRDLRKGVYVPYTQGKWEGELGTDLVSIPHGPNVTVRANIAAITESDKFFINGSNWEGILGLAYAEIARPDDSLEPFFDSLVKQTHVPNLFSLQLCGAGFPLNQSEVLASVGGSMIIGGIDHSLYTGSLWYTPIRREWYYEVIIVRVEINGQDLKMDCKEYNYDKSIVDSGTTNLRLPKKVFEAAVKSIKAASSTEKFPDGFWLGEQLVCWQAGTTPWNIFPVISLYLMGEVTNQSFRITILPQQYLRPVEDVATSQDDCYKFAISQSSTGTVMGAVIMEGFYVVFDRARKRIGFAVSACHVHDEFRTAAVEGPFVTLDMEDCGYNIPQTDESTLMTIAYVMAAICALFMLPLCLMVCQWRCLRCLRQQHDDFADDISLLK

In the case of “SER-GLU-VAL-ASN-Sta-VAL-ALA-GLU-PHE (SEVN[Sta]VAEF) [statine based inhibitor, based on the APP Swedish mutation]”, the “inhibit the β-secretase enzyme (efficiency)” value is given as “nanomolar efficiency”.
